Experimental data reported in article PMC2363329, “Interaction of the PA2G4 (EBP1) protein with ErbB-3 and regulation of this binding by heregulin” (British Journal of Cancer, 2000).

Molecular target: T1, ErbB-3, endogenous in AU565 cells (human (endogenous in AU565), UniProt P21860 20-1342)
T1 construct: ErbB-3, endogenous in the human AU565 mammary carcinoma cell line; source: endogenous, AU565 lysate
Experiment: co-IP; AU565 cells untreated, HRG (10 ng ml-1, 15 min) or EGF (50 ng ml-1, 15 min); cytoplasmic fractions in IP buffer (50 mM Tris pH 8.0, 120 mM NaCl, 0.5% NP-40); ErbB-3 immunoprecipitation, blot with anti-p38-2G4 and anti-ErbB-3; densitometry
Settings: partners not purified

T1 sequence (P21860 20-1342): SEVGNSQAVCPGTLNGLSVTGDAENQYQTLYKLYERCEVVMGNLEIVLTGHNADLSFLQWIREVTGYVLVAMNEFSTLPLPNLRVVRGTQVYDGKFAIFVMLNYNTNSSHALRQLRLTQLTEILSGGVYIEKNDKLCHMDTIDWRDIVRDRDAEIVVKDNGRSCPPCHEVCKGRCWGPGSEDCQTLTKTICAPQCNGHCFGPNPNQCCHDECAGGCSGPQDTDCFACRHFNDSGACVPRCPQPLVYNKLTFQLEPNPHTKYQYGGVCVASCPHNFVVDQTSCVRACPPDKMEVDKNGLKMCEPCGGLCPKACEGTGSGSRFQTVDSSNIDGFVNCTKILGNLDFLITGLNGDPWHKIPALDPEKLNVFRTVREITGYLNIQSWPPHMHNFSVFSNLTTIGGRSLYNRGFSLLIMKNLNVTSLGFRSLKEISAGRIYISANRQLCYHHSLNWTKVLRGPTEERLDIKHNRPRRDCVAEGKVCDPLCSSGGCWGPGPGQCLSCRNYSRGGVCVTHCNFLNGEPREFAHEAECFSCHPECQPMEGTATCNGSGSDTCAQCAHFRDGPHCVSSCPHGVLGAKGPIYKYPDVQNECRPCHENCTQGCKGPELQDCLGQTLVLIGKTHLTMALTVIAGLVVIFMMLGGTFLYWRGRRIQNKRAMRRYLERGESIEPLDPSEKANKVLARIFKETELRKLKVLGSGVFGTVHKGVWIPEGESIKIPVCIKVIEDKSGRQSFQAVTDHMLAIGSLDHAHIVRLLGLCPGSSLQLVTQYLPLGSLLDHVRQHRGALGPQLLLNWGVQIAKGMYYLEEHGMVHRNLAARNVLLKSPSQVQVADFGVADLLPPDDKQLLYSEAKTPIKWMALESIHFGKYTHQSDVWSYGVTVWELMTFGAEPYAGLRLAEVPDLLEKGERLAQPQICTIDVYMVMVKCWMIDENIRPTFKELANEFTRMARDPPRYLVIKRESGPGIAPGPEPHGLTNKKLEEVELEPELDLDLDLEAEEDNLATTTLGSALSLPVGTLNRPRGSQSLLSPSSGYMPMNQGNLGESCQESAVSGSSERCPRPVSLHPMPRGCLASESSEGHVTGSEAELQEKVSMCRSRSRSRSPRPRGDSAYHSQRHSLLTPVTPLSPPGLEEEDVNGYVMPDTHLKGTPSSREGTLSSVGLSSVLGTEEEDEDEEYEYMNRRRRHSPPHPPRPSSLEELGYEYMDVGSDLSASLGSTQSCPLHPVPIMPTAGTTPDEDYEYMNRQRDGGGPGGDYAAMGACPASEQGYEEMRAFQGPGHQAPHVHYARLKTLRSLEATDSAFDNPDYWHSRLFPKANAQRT

B1: Ebp1, endogenous approximately 50 kDa protein in AU565 cells (natural protein, human (endogenous in AU565), UniProt Q9UQ80 1-394, looked up)
chain: MSGEDEQQEQTIAEDLVVTKYKMGGDIANRVLRSLVEASSSGVSVLSLCEKGDAMIMEETGKIFKKEKEMKKGIAFPTSISVNNCVCHFSPLKSDQDYILKEGDLVKIDLGVHVDGFIANVAHTFVVDVAQGTQVTGRKADVIKAAHLCAEAALRLVKPGNQNTQVTEAWNKVAHSFNCTPIEGMLSHQLKQHVIDGEKTIIQNPTDQQKKDHEKAEFEVHEVYAVDVLVSSGEGKAKDAGQRTTIYKRDPSKQYGLKMKTSRAFFSEVERRFDAMPFTLRAFEDEKKARMGVVECAKHELLQPFNVLYEKEGEFVAQFKFTVLLMPNGPMRITSGPFEPDLYKSEMEVQDAELKALLQSSASRKTQKKKKKKASKTAENATSGETLEENEAGD
notes: Ebp1 (PA2G4), endogenous full-length protein of approximately 50 kDa in the human AU565 mammary carcinoma cell line; predicted protein of 394 amino acid residues; also called PA2G4; source: endogenous, AU565 lysate
- ratio of Ebp1 to ErbB-3 in ErbB-3 immunoprecipitates (densitometry), EGF-treated cells: 1.3
- ratio of Ebp1 to ErbB-3 in ErbB-3 immunoprecipitates (densitometry), control cells: 1.6
- ratio of Ebp1 to ErbB-3 in ErbB-3 immunoprecipitates (densitometry), heregulin-treated cells: 0.3
